The nature of series [1]: Thermostability assay (T50), culture supernatants, residual activity with ABTS. The class given is physicochemical. Here is the method:
An individual S. cerevisiae colony was selected with the corresponding clone (grown in a SC drop-out minimal medium plate: 100 mL of 6.7% yeast nitrogen base, 100 mL of 19.2 g/L uracil-free amino acid supplement, 100 mL of 20% glucose, 1 mL of 25 g/L chloramphenicol and ddH2O up to 1,000 mL) was inoculated in 2 mL of selective minimal medium (as in the SC plate medium, but with 20 g of bacto agar and rafinose instead of galactose) and was incubated for 48 hour at 30° C. and 220 RPM. An aliquot of this culture was taken such that, upon inoculating it in 5 mL of new minimal medium, optical density at 600 nm would have a value of 0.25 (optical density, OD600=0.25). This starter was incubated until completing two full growth cycles (between 6 and 8 hours), at which time 1 mL of cells were taken to inoculate 9 mL of expression medium in a 100 mL flask (OD600=0.1). This culture of each clone was incubated for 72 hours at 25° C. and 220 RPM (at peak UPO activity; OD600=25-30), the cells were separated by centrifugation (10 minutes at 4,500 RPM and 4° C.) and supernatant was filtered (using a glass and nitrocellulose filter with a pore size of 0.45 μm). Appropriate dilutions of the supernatants were prepared so that aliquots of 20 μL would give rise to a linear response in kinetic mode. 50 μL of supernatant were used for each point in a temperature gradient created by means of thermocyclator, from 30 to 80° C. After incubating for 10 minutes, the aliquots were cooled in ice for 10 minute and tempered at room temperature for 5 minutes. […] The thermostability values were calculated in accordance with the ratio between the residual activities incubated at different temperatures and the value of initial activity at room temperature. The value of T50 was determined as the value of the temperature at which the protein loses 50% of it initial activity after incubating for 10 minutes.
An individual S. cerevisiae colony was selected with the corresponding clone (grown on a SC drop-out minimal medium plate: 100 mL of 6.7% yeast nitrogen base, 100 mL of 19.2 g/L uracil-free amino acid supplement, 100 mL of 20% glucose, 1 mL of 25 g/L chloramphenicol and ddH2O up to 1,000 mL), was inoculated in 3 mL of selective minimal medium (like the SC plate medium, but with 20 g of bacto agar and rafinose instead of galactose) and incubated for 48 hours at 30° C. and 220 RPM. […] The thermostability values were calculated in accordance with the ratio between the residual activities incubated at different temperatures and the value of initial activity at room temperature. The value of T50 was determined as as the temperature value at which the protein loses 50% of its initial activity after incubating for […].

The nature of series [2]: Optimum pH for DMP. The class given is biochemical.
A short description of series [3]: Optimum pH for naphthalene. The class given is biochemical.
Series [4] in a line: Conversion of 1-naphthol into 1,4-naphthoquinone, HPLC. The class given is biochemical. To be noted: versus PaDa-I. On the procedure: Each reaction was performed in triplicate and were stopped with HCl (pH<1) at different times (between 60 and 600 s). Inset: polymeric colorimetric products derived from 1.4-naphthoquinone, 1: PaDa-I and 2: JaWa.
This effect can also be observed at first glance, since the polymeric products produced in the reaction with the PaDa-I variants (SEQ ID NO: 18) (due to non-enzymatic quinone regrouping processes) are coloured (FIG. 4). There are hypotheses in literature on the possibility that UPO is similar to CPO in the existence of different sites with peroxidase activity in its structure. To suppress these alternative peroxidation pathways, the structure of the AaeUPO1 crystal was closely examined and a variant was built by mean of directed mutagenesis in Trp24 (FIG. 5A), a highly oxidable residue, found on the protein surface, using the PaDa-I (SEQ ID NO: 18) and JaWa (SEQ ID NO: 24) variants as templates, as described in the section on materials and methods.

A short description of series [5]: Stability at high acetonitrile concentrations. The conditions noted are these: 5 hours of incubation, 50% to 100% co-solvent, 20° C.; versus PaDa-I. The class given is physicochemical. Here is the method: FIG. 2 Biochemical characteristics of the variants of the invention. A) Spectroscopic characteristics of the PaDa-I (thin line) and JaWa (thick line) mutants at rest. AU, arbitrary units. B) Thermostability analysis (T50) of the PaDa-I (black circles) and JaWa (white circles) mutants. The experiments were carried out using culture supernatants and each point represents the average value and standard deviation of three individual experiments. C) Stability of the PaDa-I (black bars) and JaWa (grey bars) mutants at high acetonitrile concentrations. The stabilities were determined after 5 hours of incubation of the enzyme in increasing concentrations of the co-solvent (from 50% to 100%) at 20° C. in 10 mM pH 7.0 potassium phosphate buffer. […] The error bars indicate standard deviations.

Series [6] is described as follows: Turnover with 5′-hydroxypropranolol as substrate, HPLC. The class given is biochemical. The conditions noted are these: 0.03 μM enzyme, 0.4 mM 5′-hydroxypropranolol, 2 mM H2O2, absence of ascorbic acid. On the procedure:
FIG. 14 Turnover rates of AaeUPO, JaWa and SoLo. […] The disappearance of the product 5′-hydroxypropranolol can be observed due to the formation of its corresponding quinone by means of the peroxidase activity of the enzyme.
The reactions were analysed by means of chromatography in reverse phase (HPLC). The equipment was composed of a tertiary pump (Varian-Agilent Technologies, USA) coupled to an autosampler (Merck Millipore, MA, USA); for the separation, a Zorbax Eclipse plus C18 column (15 cm×4.6 cm) at 40° C. was used and the detection was performed using a photodiode detector (PDA) (Varian, Agilent Technologies, USA). The mobile phase selected was a gradient from 10% methanol and 90% ddH2O (in both cases with 0.1% of acetic acid) up to 90% methanol and 10% ddH2O at a flow rate of 0.8 mL/min. The reaction was quantified at 280 nm (based on HPLC standards). […] The standard deviations were less than 5% in all cases.

B1: JaWa: PaDa-I variant with added mutations G241D and R257K, SEQ ID NO: 24 (protein)
chain: MKYFPLFPTLVYAVGVVAFPDYASLAGLSQQELDAIIPTLEAREPGLPPGPLENSSAKLVNDEAHPWKPLRPGDIRGPCPGLNTLASHGYLPRNGVATPAQIINAVQEGFNFDNQAAIFATYAAHLVDGNLITDLLSIGRKTRLTGPDPPPPASVGGLNEHGTFEGDASMTRGDAFFGNNHDFNETLFEQLVDYSNRFGGGKYNLTVAGELRFKRIQDSIATNPNFSFVDFRFFTAYGETTFPANLFVDGRRDDGQLDMDAARSFFQFSRMPDDFFRAPSPRSDTGVEVVVQAHPMQPGKNVGKINSYTVDPTSSDFSTPCLMYEKFVNITVKSLYPNPTVQLRKALNTNLDFLFQGVAAGCTQVFPYGRD
Turning to B1, in series [1] (culture supernatants, temperature at which the enzyme retains 50% of its activity after 10 minutes of incubation), the “Thermal stability, T50” value is 59.7 °C. The “increase in thermostability (T50) with respect to PaDa-I” value in series [1] (versus PaDa-I variant) was 2 °C. In addition, the “Optimum pH for DMP” value in series [2] was 6.0. Also, the “Optimum pH for naphthalene” value in series [3] was found to be 6.0. In addition, the “reduction in the ratio 1,4-naphthoquinone:1-naphthol” value in series [4] was around 1.5 fold. Moreover, the “stability in the presence of acetonitrile” value in series [5] is on record as “higher stability in the presence of acetonitrile”. In addition, the “5′-hydroxypropranolol maintained without oxidising” value in series [6] is “oxidise practically the entire product”.

For the origin of these results see patent US10876098B2, “Polynucleotide, host cell and a method to recombinantly produce the protein encoded by said polynucleotide having peroxygenative activity” (CONSEJO SUPERIOR DE INVESTIGACIONES CIENTIFICAS (CSIC), priority 2015, dated 2020).
